Among the data in the RNAGym collection of RNA variant scans (doi:10.7554/elife.90254) are self-cleavage values, retold here.

Sequences and labels used below:
B1: LINE1-full (parent)
chain: UACGUAGGUGGUUUUCCCCUGAUAGUGCUAAGGGGGCCUGGAAGUUUGGACUGGGCAGAGCUCAACACAGCGUGGCAAAGUGGCUGUGGCUAGACUGCCUCUCUGGAUUCCUCGUCACUCAGCAGGGCAUCUCUGAGAGAAAUGCC

In the data set the parent is B1. Description: self-cleavage, relative activity (ratio to wild type); higher = more cleavage; in vitro, sequencing; the parent is a self-cleaving ribozyme.
Regarding G80C A141G, the self-cleavage was determined as 1.04.

Consider A79G U91A, for which the self-cleavage was 0.32.

Turning to A77G U108C, the self-cleavage amounted to 2.51.

Consider A77U A140G, for which the self-cleavage was 1.37.

As to A77U A140U, the self-cleavage turned out to be 1.23.

Consider A77U U119A, for which the self-cleavage was found to be 1.51.

In the case of A79G C113A, the self-cleavage was determined as 0.14.

With A77G A79G, the self-cleavage came out at 0.95.

For the variant A79U G125A, the self-cleavage amounted to 1.6.

A77U U132G: the self-cleavage was determined as 1.74.

As for A77U U132C, the self-cleavage turned out to be 1.41.

For the variant A78G A124C, the self-cleavage came to 1.59.

In the case of A78G A124G, the self-cleavage is 0.99.

As for G80A U100C, the self-cleavage turned out to be 1.42.

As for A78U A92U, the self-cleavage was found to be 1.02.

Regarding A79U U108C, the self-cleavage was found to be 2.3.

In the case of A78U A141G, the self-cleavage came to 1.96.

In the case of A78U U91G, the self-cleavage was determined as 0.11.

A79U U109C: the self-cleavage came to 1.34.

As to A79U U109G, the self-cleavage is 1.1.

Turning to G80A C128U, the self-cleavage was 1.9.

For A77C G93A, the self-cleavage came to 0.06.

For A77U C145A, the self-cleavage was 1.75.

As to A77U U115C, the self-cleavage was 1.22.

With A78G U81G, the self-cleavage was found to be 0.34.

Take A78G U81C: the self-cleavage was determined as 1.62.

As to A78G U108G, the self-cleavage is 1.38.

As for A78G U108A, the self-cleavage worked out at 1.41.

Turning to A78G U108C, the self-cleavage was determined as 1.64.

Consider A79G A138C, for which the self-cleavage came to 2.4.

On to A78G A117G, for which the self-cleavage was 0.89.

Regarding A79C A138U, the self-cleavage was determined as 2.19.

For the variant C76U U143A, the self-cleavage was determined as 2.12.

In the case of A79G C128A, the self-cleavage stood at 0.46.

With G80C G86U, the self-cleavage turned out to be 0.04.

As for A77U A124U, the self-cleavage came to 1.27.

As to A77U A124C, the self-cleavage turned out to be 1.49.

Consider A77G C90A, for which the self-cleavage is 0.03.

Consider A78G A94U, for which the self-cleavage came out at 0.19.

Consider A78G A94G, for which the self-cleavage was found to be 0.49.

Take A77G G83A: the self-cleavage worked out at 1.75.

Consider A77U U91C, for which the self-cleavage came to 0.6.

Consider A77U U108G, for which the self-cleavage was determined as 1.37.

As to A78G C98G, the self-cleavage came out at 0.11.

Regarding A78G C98U, the self-cleavage amounted to 0.47.

As to A78G G80A, the self-cleavage came to 2.49.

Take A77G U109G: the self-cleavage came out at 0.

For G80A G86A, the self-cleavage worked out at 0.05.

Regarding A79G G144C, the self-cleavage was 0.77.

For the variant A79G G125C, the self-cleavage was determined as 1.28.

On to A77U A129U, for which the self-cleavage came out at 1.24.

Turning to A79G A142U, the self-cleavage stood at 2.04.

On to A77C U100C, for which the self-cleavage turned out to be 1.53.

As to A78G A138G, the self-cleavage was found to be 1.69.

Take A78G A138C: the self-cleavage is 1.31.

Regarding A77G A141G, the self-cleavage came out at 2.25.

For the variant A77G A141U, the self-cleavage came out at 1.89.

With A79C U119A, the self-cleavage came to 1.01.

With A79U G86A, the self-cleavage is 0.07.

With G80C A121G, the self-cleavage came to 1.18.

Consider A78U U87C, for which the self-cleavage came to 0.84.

For A77G G139U, the self-cleavage turned out to be 2.41.

Consider A77G A129G, for which the self-cleavage turned out to be 2.21.

Regarding A78C A117G, the self-cleavage was 2.21.

Regarding A78G U109C, the self-cleavage is 1.38.

For A79U C101A, the self-cleavage came out at 1.92.

A78G A129U: the self-cleavage was 1.17.

As to A78G U100C, the self-cleavage is 2.09.

A78G U100A: the self-cleavage is 0.16.

Consider A79C U91A, for which the self-cleavage is 0.94.

For the variant A78C A121G, the self-cleavage came out at 2.59.

A78U A140U: the self-cleavage is 1.72.

Turning to A79G A117G, the self-cleavage came out at 1.27.

With A77C U115C, the self-cleavage came to 0.6.

A78G C84A: the self-cleavage was found to be 0.09.

A78G G83A: the self-cleavage was 0.25.

For the variant A77G A94G, the self-cleavage is 0.68.

For the variant A77G A94U, the self-cleavage was 0.61.

Take A79U A141U: the self-cleavage is 2.36.

In the case of A77C U85A, the self-cleavage was 0.18.

Regarding A79G U102A, the self-cleavage came to 1.12.

Turning to A79G U102C, the self-cleavage turned out to be 0.89.

As to A79G A136G, the self-cleavage was determined as 1.42.

As to A79G G122A, the self-cleavage turned out to be 1.31.

Turning to A79C A92G, the self-cleavage is 0.24.

A77U U87C: the self-cleavage amounted to 0.09.

Take A77U U87A: the self-cleavage amounted to 0.05.

As for A79G U87G, the self-cleavage is 0.07.

Turning to A77U U143G, the self-cleavage turned out to be 1.48.

A77U U143C: the self-cleavage was 1.04.

Regarding A79G U132G, the self-cleavage was 0.63.

As to A78G U91C, the self-cleavage worked out at 0.29.

Consider A77G U100A, for which the self-cleavage was 1.93.

Turning to A77G A107G, the self-cleavage stood at 2.08.

Turning to A79G U134C, the self-cleavage turned out to be 1.25.

In the case of A79G U134G, the self-cleavage amounted to 0.57.

Consider A77C U132C, for which the self-cleavage came out at 1.19.

For C76U G137U, the self-cleavage is 1.87.

As to A78G U85A, the self-cleavage was found to be 0.09.

A78G G126C: the self-cleavage came to 1.99.

A78G U102G: the self-cleavage stood at 0.2.

Regarding A78G U102C, the self-cleavage turned out to be 1.53.

In the case of G80A A138G, the self-cleavage came out at 2.06.

For the variant C76U U100C, the self-cleavage is 2.91.

Regarding A77C U143C, the self-cleavage was found to be 1.12.

For G80A G88U, the self-cleavage amounted to 0.15.

With A79U A117G, the self-cleavage was determined as 2.57.

With A79G G89U, the self-cleavage was determined as 0.05.

Turning to A78G A79U, the self-cleavage was 0.52.

Consider A77U, for which the self-cleavage turned out to be 1.21.

With A77G, the self-cleavage is 2.12.

Regarding A77C, the self-cleavage amounted to 0.98.

A78U U112A: the self-cleavage stood at 2.12.

Take G80C U109C: the self-cleavage was 1.27.

In the case of A78G G127A, the self-cleavage amounted to 1.16.

Consider A77G U104A, for which the self-cleavage came to 1.64.

A77G G93U: the self-cleavage is 0.05.

As for A77C U102A, the self-cleavage is 1.37.

For A77G C110U, the self-cleavage came to 0.71.

As to A77U A136U, the self-cleavage is 0.75.

In the case of A79G C98G, the self-cleavage amounted to 0.12.

As for A78G G144A, the self-cleavage is 1.3.

For A77G A138G, the self-cleavage came to 2.3.

In the case of A77U U85C, the self-cleavage was found to be 0.09.

On to A77G G97C, for which the self-cleavage amounted to 0.65.

On to A77G G97U, for which the self-cleavage turned out to be 0.08.

A78U U143C: the self-cleavage was 1.31.

With A77C A140G, the self-cleavage worked out at 1.16.

Regarding A78U G127C, the self-cleavage was 2.34.

Regarding A79C G89A, the self-cleavage came to 0.09.

For A77G G88A, the self-cleavage stood at 0.09.

Take A79G U96A: the self-cleavage is 0.09.

Turning to A79G U96C, the self-cleavage was determined as 0.16.

Regarding A79U C99A, the self-cleavage amounted to 0.31.

As to A77G A124G, the self-cleavage is 1.9.

On to A77G A124U, for which the self-cleavage came out at 1.84.

For A79G A129U, the self-cleavage came to 1.16.

With A79U C84A, the self-cleavage is 0.21.

With A77U A79G, the self-cleavage amounted to 1.48.

With A79U A121C, the self-cleavage is 1.64.

On to A77U G89A, for which the self-cleavage worked out at 0.06.

In the case of A77U G106A, the self-cleavage came to 1.31.

As to A78C U102C, the self-cleavage stood at 2.53.

Take A78G A121G: the self-cleavage turned out to be 1.24.

As for A78G A121U, the self-cleavage was determined as 0.67.

Take A78G A121C: the self-cleavage was determined as 1.9.

Take A79C A136G: the self-cleavage stood at 1.93.

On to A79G U143C, for which the self-cleavage came to 1.47.

As for G80A A141G, the self-cleavage stood at 1.89.

A77C A124G: the self-cleavage worked out at 0.32.

On to G80A G126U, for which the self-cleavage stood at 2.06.

Turning to A78G U96A, the self-cleavage stood at 0.06.

With A79G U119G, the self-cleavage came out at 1.31.

Turning to A79G U119C, the self-cleavage was 1.48.

Regarding G80A U87C, the self-cleavage was 0.2.

Consider A77C U96C, for which the self-cleavage was determined as 0.09.

Regarding A77C A121G, the self-cleavage was 1.55.

For A79G G83U, the self-cleavage was determined as 0.2.

A79U: the self-cleavage was found to be 1.85.

For the variant A79C, the self-cleavage was 1.57.

On to A79G, for which the self-cleavage was 1.25.

Consider A78G C116U, for which the self-cleavage worked out at 1.29.

For A77G C103A, the self-cleavage is 2.24.

For A77G C103U, the self-cleavage was determined as 1.99.

For A79U U112C, the self-cleavage amounted to 1.95.

A77U G125U: the self-cleavage came to 1.5.

Consider A77U G125A, for which the self-cleavage was determined as 1.33.
